This is an account of results in the supplement of paper PMC11908140.

B1: library; numbered along this chain (parent)
chain: MRKPRAAVGSGHRKQAASQEGRQKHAKNNSQAKPSACDGLARQPEEVVLQASVSSYHLFRDVAEVTAFRGSLLSWYDQEKRDLPWRRRAEDEMDLDRRAYAVWVSEVMLQQTQVATVINYYTGWMQKWPTLQDLASASLEEVNQLWAGLGYYSRGRRLQEGARKVVEELGGHMPRTAETLQQLLPGVGRYTAGAIASIAFGQATGVVDGNVARVLCRVRAIGADPSSTLVSQQLWGLAQQLVDPARPGDFNQAAMELGATVCTPQRPLCSQCPVESLCRARQRVEQEQLLASGSLSGSPDVEECAPNTGQCHLCLPPSEPWDQTLGVVNFPRKASRKPPREESSATCVLEQPGALGAQILLVQRPNSGLLAGLWEFPSVTWEPSEQLQRKALLQELQRWAGPLPATHLRHLGEVVHTFSHIKLTYQVYGLALEGQTPVTTVPPGARWLTQEEFHTAAVSTAMKKVFRVYQGQQPGTCMGSKRSQVSSPCSRKKPRMGQQVLDNFFRSHISTDAHSLNSAAQ

In this data set the parent is B1. The data set can be described thus: 8OG:A repair function score (normalized; synonymous = 0, nonsense = -1) (normalized log-likelihood score); higher = more repair activity (WT-like). The note with it: with 8OG:A DNA repair reporter (GFP) in HEK-293 MUTYH KO cells. The protocol:
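Saturation mutagenesis (NNN codon scan) of the MUTYH cDNA (521-aa nuclear isoform NM_001048174.1 / NP_001041639), stably expressed under doxycycline induction in HEK-293 MUTYH knockout cells. Cells were co-transfected with an 8OG:A-bearing GFP repair reporter plus mCherry and sorted 72 h later into GFP+ and GFP− bins, three replicates per tile. The Rosace log2 enrichment (GFP+ vs GFP−) was converted per tile to a normalized function score with synonymous variants centered at 0 and nonsense variants (codons 1-471) at -1; low-abundance variants were removed.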
As for MRKPRAAVGSGHRKQAASQEGRQKHAKNNSQAKPSACDGLARQPEEVVLQASVSSYHLFRDVAEVTAFRGSLLSWYDQEKRDLPWRRRAEDEMDLDRRAYAVWVSEVMLQQTQVATVINYYTGWMQKWPTLQDLASASLEEVNQLWAGLGYYSRGRRLQEGARKVVEELGGHMPRTAETLQQLLPGVGRYTAGAIASIAFGQATGVVDGNVARVLCRVRAIGADPSSTLVSQQLWGLAQQLVDPARPGDFNQAAMELGATVCTPQRPLCSQCPVESLCRARQRVEQEQLLASGSLSGSPDVEECAPNTGQCHACLPPSEPWDQTLGVVNFPRKASRKPPREESSATCVLEQPGALGAQILLVQRPNSGLLAGLWEFPSVTWEPSEQLQRKALLQELQRWAGPLPATHLRHLGEVVHTFSHIKLTYQVYGLALEGQTPVTTVPPGARWLTQEEFHTAAVSTAMKKVFRVYQGQQPGTCMGSKRSQVSSPCSRKKPRMGQQVLDNFFRSHISTDAHSLNSAAQ [L313A], the “8OG:A repair function score” value was -0.4.

Take MRKPRAAVGSGHRKQAASQEGRQKHAKNNSQAKPSACDGLARQPEEVVLQASVSSYHLFRDVAEVTAFRGSLLSWYDQEKRDLPWRRRAEDEMDLDRRAYAVWVSEVMLQQTQVATVINYYTGWMQKWPTLQDLASASLEEVNQLWAGLGYYSRGRRLQEGARKVVEELGGHMSRTAETLQQLLPGVGRYTAGAIASIAFGQATGVVDGNVARVLCRVRAIGADPSSTLVSQQLWGLAQQLVDPARPGDFNQAAMELGATVCTPQRPLCSQCPVESLCRARQRVEQEQLLASGSLSGSPDVEECAPNTGQCHLCLPPSEPWDQTLGVVNFPRKASRKPPREESSATCVLEQPGALGAQILLVQRPNSGLLAGLWEFPSVTWEPSEQLQRKALLQELQRWAGPLPATHLRHLGEVVHTFSHIKLTYQVYGLALEGQTPVTTVPPGARWLTQEEFHTAAVSTAMKKVFRVYQGQQPGTCMGSKRSQVSSPCSRKKPRMGQQVLDNFFRSHISTDAHSLNSAAQ [P174S]: the “8OG:A repair function score” value was -0.753. As for MRKPRAAVGSGHRKQAASQEGRQKHAKNNSQAKPSACDGLARQPEEVVLQASVSSYHLFRDVAEVTAFRGSLLSWYDQEKRDLPWRRRAEDEMDLDRRAYAVWVSEVMLQQTQVATVINYYTGWMQKWPTLQDLASASLEEVNQLWAGLGYYSRGRRLQEGARKVVEELGGHMPRTAETLQQLLPGVGRYTAGAIASIAFGQATGVVDGNVARVLCRVRAIGADPSSTLVSQQLWGLAQQLVDPARPGDFNQAAMELGATVCTPQRPLCSQCPVESLCRARQRVEQEQLLATGSLSGSPDVEECAPNTGQCHLCLPPSEPWDQTLGVVNFPRKASRKPPREESSATCVLEQPGALGAQILLVQRPNSGLLAGLWEFPSVTWEPSEQLQRKALLQELQRWAGPLPATHLRHLGEVVHTFSHIKLTYQVYGLALEGQTPVTTVPPGARWLTQEEFHTAAVSTAMKKVFRVYQGQQPGTCMGSKRSQVSSPCSRKKPRMGQQVLDNFFRSHISTDAHSLNSAAQ [S292T], the “8OG:A repair function score” value is -0.0314. As for MRKPRAAVGSGHRKQAASQEGRQKHAKNNSQAKPSACDGLARQPEEVVLQASVSSYHLFRDVAEVTAFRGSLLSWYDQEKRDLPWRRRAEDEMDLDRRAYAVWVSEVMLQQTQVATVINYYTGWMQKWPTLQDLASASLEEVNQLWAGLGYYSRGRRLQEGARKVVEELGGHMPRTAETLQQLLPGVGRYTAGAIASIAFGQATGVVDGNVARVLCRVRAIGADPSSTLVSQQLWGLAQQLVDPARPGDFNQAAMELGATVCTPQRPLCSQCPVESLCRARQRVEQEQLLASGSLSGSPDVEECAPNTGQCHLCLPPSEPWDQTLGVVNFPRKASRKPPREESSATCVLEQPGALGAQILLVQRPNSGLLAGLWEFPSVTWEPSEQLQRKALLQELQRWAGPLPATHLRHLGEVVHTFSHIKLTYQVYGLALEGQTPVTTVPPGARWLTQEEFHTAAVSTAMKKVFRVHQGQQPGTCMGSKRSQVSSPCSRKKPRMGQQVLDNFFRSHISTDAHSLNSAAQ [Y469H], the “8OG:A repair function score” value was -0.0773. Next, MRKPRAAVGSGHRKQAASQEGRQKHAKNNSQAKPSACDGLARQPEEVVLQASVSSYHLFRDVAEVTAFRGSLLSWYDQEKRDLPWRRRAEDEMDLDRRAYAVWVSEVMLQQTQVATVINYYTGWMQKWPTLQDLASASLEEVNQLWAGLGYYSRGRRLQEGARKVVEELGGHMPRTAETLQQLLPGVGRYTAGAIASIAFGQATGVVDGNVARVLCRVRAIGADPSSTLVSQQLWGLAQQLVDPARPGDFNQAAMELGATVCTPQRPLCSQCPVESLCRARQRVEQEQLLASGSLSGSPDVEECAPNTGQCHLCLPPSEPWDQTLGVVNFPRKASRKPPREESSATCVLEQPGALGAQILLVQRPNSGLLAGLWEFPSVTWEPSEQLQRKALLQELQRWAGPLPATHLRHLGEVVHTFSHILLTYQVYGLALEGQTPVTTVPPGARWLTQEEFHTAAVSTAMKKVFRVYQGQQPGTCMGSKRSQVSSPCSRKKPRMGQQVLDNFFRSHISTDAHSLNSAAQ [K422L]: -0.353. On to MRKPRAAVGSGHRKQAASQEGRQKHAKNNSQAKPSACDGLARQPEEVVLQASVSSYHLFRDVAEVTAFRGSLLSWYDQEKRDLPWRRRAEDEMDLDRRAYAVWVSEVMLQQTQVATVINYYTGWMQKWPTLQDLASASLEEVNQLWAGLGYYSRGRRLQEGARKVVEELGGHMPRTAETLQQLLPGVGRYTAGAIASIAFGQATGVVDGNVARVLCRVRAIGADPSSTLVSQQLWGLAQQLVDPARPGDFNQAAMELGATVCTPQRPLCSQCPVESLCRARQRVEQEQLLASGSLSGSPDVEECAPNTGQCHLCLPPSEPWDQTLGVVNFPRKASRKPPREESSATCVLEQPGALGAQILLVQRPNSGLLAGLWEFPSVTWEPSEQLQRKALLQELQRWAGPLPATHLRHLGEVVHTFSHIKLTYQVYGLALEGQTPVTTVPPGARWLTQEEFHTAAVSTAMKKSFRVYQGQQPGTCMGSKRSQVSSPCSRKKPRMGQQVLDNFFRSHISTDAHSLNSAAQ [V465S], for which the “8OG:A repair function score” value was -0.646.
